In experiment [1] the target is T1, human Carbonic Anhydrase II (human, UniProt P00918 2-260). Put plainly: fluorescence titration, 50 nM fluorescein labelled binder, HCAII 20 pM to 1 µM. On the procedure:
The fluorescence titrations were carried out using polypeptides conjugated to a dansyl group rather than a 7-methoxycoumarin to avoid overlap with fluorescein, but a fluorophore is present in each sequence of the scaffold library to simplify identification and quantification throughout synthesis and purification. […] Fluorescence intensities of protein-binder mixtures were compared to intensities of binders without protein. The analysis was performed in 50 mM Hepes buffer at pH 7.4 containing 150 mM NaCl. HCAII was added in 25 steps over a concentration range from 20 pM to 1 μM to the binder at 50 nM concentration and the results analyzed by curve fitting.

Experiment [2] concerns the target T2, human D-dimer protein (human, UniProt P02671 124-216; P02675 164-491; P02679 89-437).
T2 construct: Bought from Abcam Inc. UK; the chain make-up here is from general knowledge
T2 sequence (looked up) 1: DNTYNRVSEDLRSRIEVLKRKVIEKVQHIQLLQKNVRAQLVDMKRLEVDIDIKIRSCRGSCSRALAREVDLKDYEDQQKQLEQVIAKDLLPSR
T2 sequence (looked up) 2: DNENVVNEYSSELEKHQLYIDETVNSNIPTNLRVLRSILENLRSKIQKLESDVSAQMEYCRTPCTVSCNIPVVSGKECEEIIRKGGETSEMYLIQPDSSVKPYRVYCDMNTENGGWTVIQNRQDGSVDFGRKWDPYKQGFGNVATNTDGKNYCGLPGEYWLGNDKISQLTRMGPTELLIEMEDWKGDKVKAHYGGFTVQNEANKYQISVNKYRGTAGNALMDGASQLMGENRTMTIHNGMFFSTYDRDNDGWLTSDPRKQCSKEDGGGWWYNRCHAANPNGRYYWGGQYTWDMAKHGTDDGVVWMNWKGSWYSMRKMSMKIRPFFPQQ
T2 sequence (looked up) 3: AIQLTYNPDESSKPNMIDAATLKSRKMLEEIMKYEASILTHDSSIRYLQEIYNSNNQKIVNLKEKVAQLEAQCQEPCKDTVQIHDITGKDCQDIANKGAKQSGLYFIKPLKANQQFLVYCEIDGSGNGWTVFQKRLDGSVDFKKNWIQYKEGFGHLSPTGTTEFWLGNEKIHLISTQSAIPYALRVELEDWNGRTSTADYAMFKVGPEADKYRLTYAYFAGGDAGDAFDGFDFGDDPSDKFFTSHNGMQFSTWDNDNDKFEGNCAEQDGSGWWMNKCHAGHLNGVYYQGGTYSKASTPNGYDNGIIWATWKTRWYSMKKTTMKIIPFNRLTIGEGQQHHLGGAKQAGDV
The experiment in a line: SPR surface competition, D-dimer immobilized; competitor 4-D10L17-GPRP at 100 nM; GPRP in running buffer, competing with 100 nM 4-D10L17-GPRP (Biacore). The protocol: (§1) The interactions between the D-dimer protein and binders as well as surface competition experiments were studied using a Biacore 2000 instrument (GE Healthcare Bio-Sciences, Uppsala, Sweden), equilibrated at 25° C. The CM5 sensor chip (Research grade, Biacore) and reagents were from GE Healthcare Bio-Sciences, Uppsala, Sweden. For direct interaction studies between immobilized D-dimer protein and polypeptide conjugates, HBS-EP was used as running buffer. […] For minimum sample dispersion, the samples were injected at a flow rate of 50 uL/min. After 10 min of dissociation the surface was regenerated by 30 s pulse injection of 10 mM glycine at pH 3.0. All injections were serial and first passed over the deactivated dextran surface and then over the immobilized surfaces. Blank injections were included for each measurement series and subtracted from the data. Experiments were performed at least twice, unless stated otherwise. […] The dissociation constants, Kd, were obtained using the Biaevaluation program version 3.2 (Biacore) and assuming a simple 1:1 Langmuir binding mechanism.

Experiment [3] has as its target T2, human D-dimer protein. The experiment in a line: SPR screen (Biacore 2000), D-dimer immobilized on CM5, 1:1 Langmuir model. On the procedure: (§2) The protein was then further diluted with 10 mM NaOAc at pH 4.6 to give a concentration of about 32 μg/mL. The D-dimer protein was covalently immobilized on the sensor chip surface by amine coupling with HBS-EP (10 mM HEPES, pH 7.4, 150 mM NaCl, 3 mM EDTA and 0.005% P20) (GE Healthcare Bio-Sciences, Uppsala, Sweden) as a running buffer. The CM5 sensor chip surface was activated for 7 min by injecting a solution of EDC/NHS (200 mM 1-ethyl-3-(3-dimethylaminopropyl)-carbodiimide hydrochloride/50 mM N-hydroxysuccinimide) (GE Healthcare Bio-Sciences, Uppsala, Sweden). The D-dimer protein was injected for 1.5 min at flow rate of 5 uL/min over the activated surface and followed by 7-min pulse of 1M ethanolamine at pH 8.5 to deactivate remaining active ester.
as §1
In general terms: SPR reads the build-up and loss of mass on a sensor chip optically.

The target of experiment [4] is T2, human D-dimer protein. Put plainly: SPR (Biacore 2000) screen, D-dimer immobilized on a CM5 chip, binder at 1, 10 and 100 nM, 3 min injection, 10 min clearance. The protocol: as §2
The interactions between the D-dimer protein and binders as well as surface competition experiments were studied using a Biacore 2000 instrument (GE Healthcare Bio-Sciences, Uppsala, Sweden), equilibrated at 25° C. The CM5 sensor chip (Research grade, Biacore) and reagents were from GE Healthcare Bio-Sciences, Uppsala, Sweden. For direct interaction studies between immobilized D-dimer protein and polypeptide conjugates, HBS-EP was used as running buffer. […] For minimum sample dispersion, the samples were injected at a flow rate of 50 uL/min. […]

Experiment [5] addresses T3, human Carbonic Anhydrase I (human, UniProt P00915 2-261).
T3 construct: also called HCAI; HCA I
The experiment in a line: SPR, HCAI immobilized on CM5, 1:1 model. The protocol:
(§3) HCAI and HCAII were immobilized in different flowcells on a CM-5 (Biacore) chip using standard EDC/NHS coupling in Acetate buffer at pH 5.5.
(§4) SPR measurements were performed on a Biacore® 2000 instrument, with the proteins immobilized on a Biacore® CM-5 sensor chips (GE Healthcare). All interaction studies were performed in Biacore® HSB-EP buffer with the addition of 1% (v/v) DMSO. HCAII (Sigma, lyophilized powder) was dissolved in Acetate buffer pH 5.5 to a 2 mg/mL solution. HCAII were conjugated to the surface by EDC/NHS coupling reactions in Acetate buffer pH 5.5. Solutions of the polypeptide binders were prepared in HBS-EP buffer from stock solutions of 20 μM in DMSO and allowed to flow over the surface at 20 μL/min, with blank injections after every series. All samples were adjusted to contain 1% (v/v) DMSO. Injections were made for 30 s and dissociation was allowed to proceed for 3000 s. Evaluation was performed using a 1:1 binding model.

Experiment [6] has as its target T1, human Carbonic Anhydrase II. The experiment in a line: SPR, HCAII immobilized on CM5, 1:1 model. The protocol:
as §3, §4

The target is the same in experiment [7]. The experiment in a line: SPR (Biacore 2000), HCAII immobilized on CM5, 1:1 model. On the procedure:
The sixteen polypeptide conjugates were also characterized by SPR biosensor analysis (Biacore®, GE Healthcare), using a Biacore® 2000 instrument, Biacore® CM-5 chip and HBS-EP buffer pH 7.4 (Biacore®, GE Healthcare) with addition of 1% DMSO for the interaction studies. Peptide solutions were prepared by dilution in buffer from 20 μM stock solutions in DMSO. HCAII was immobilized on the chip using standard EDC/NHS coupling in Acetate buffer pH 5.5. The binders were allowed to flow over the chip at 7 concentrations in the range from 1 nM to 500 nM and the interactions were evaluated using a 1:1 binding model (BiaEvaluation).
as §4, with “Evaluation was performed using a 1:1 binding model.” left out

Experiment [8] deals with T2, human D-dimer protein. Put plainly: SPR (Biacore 2000), D-dimer immobilized on CM5, binders at 5-160 nM, 1:1 Langmuir model.
The target in experiment [9] is T1, human Carbonic Anhydrase II. Put plainly: SPR, ratio of the dissociation constants for HCAI and HCAII.
Text: as §3

The target in experiment [10] is T3, human Carbonic Anhydrase I. Put plainly: SPR, HCAI immobilized on CM5, 1:1 model; the heads Koff and Kon seem to be swapped. The protocol:
as §3, §4

Square brackets hold non-standard residues; d marks the D form. Side chains are listed from the residue outwards. Ends that are not written are not given here. * marks the point of attachment. X2 = 7‑methoxycoumarin‑3‑carboxylic acid, COc1ccc2cc(C(=O)*)c(=O)oc2c1; Dansyl = CN(C)c1cccc2c(S(=O)(=O)*)cccc12; Ahx = NCCCCCC(=O)O

T3 sequence (P00915 2-261 limits assumed): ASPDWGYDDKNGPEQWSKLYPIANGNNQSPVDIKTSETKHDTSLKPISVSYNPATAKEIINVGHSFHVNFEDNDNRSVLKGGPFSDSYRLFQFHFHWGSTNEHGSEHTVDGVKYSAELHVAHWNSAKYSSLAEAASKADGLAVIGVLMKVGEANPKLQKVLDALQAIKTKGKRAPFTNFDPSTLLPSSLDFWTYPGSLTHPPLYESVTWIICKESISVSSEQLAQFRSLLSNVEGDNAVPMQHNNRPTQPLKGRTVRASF

For orientation: Kd means the equilibrium constant for the complex coming apart. With Ac-NAADLEAAIK(Dansyl)HLAEALK([Ahx-benzenesulphonamide carboxylic acid])ERGPEDC(N‑(5-fluoresceinyl)maleimide)EQLAEQLARAFEAFARAG (designed binder) [1-C10L17-B with dansyl and fluorescein (form for fluorescence titration)], binding in experiment [1] was put at a Kd of 5 nM. This counts as single-digit nanomolar. As a reminder, the IC50 is the concentration at which inhibition is half-maximal. GPRP (also called GPRP tetrapeptide) [GPRP peptide] displayed an IC50 in experiment [2] of roughly 50000 nM.

In experiment [3], Ac-NAADLEAAIKHLAEALK([Gly-Ahx-Pro-Arg-Pro-Gly])ARGPVDAAQLAEQLARAFEAFARAG (designed binder, also: reporter on Lys10, 'D' in the name not explained) [2D10L17_GPRP] had a Kd of 10300 nM.

B1: 1D15L8_GPRP (designed binder)
polypeptide: Ac-NEADLEAKIRHLAEKLEARGPEDAEQLAEQLARAFEAFARAG
ligand peptide, branch on Lys8: GPRP[Ahx]G
modifications: not fully specified (some residues); also: reporter group on Lys15, bond at chain A 8 to a chain's C-terminus via 6-aminocaproic acid-Gly
Take B1: in experiment [4], the binding result is reported as “no binding (tested: 100 nM)”. In experiment [1], Ac-NAADLEAK([Ahx-benzenesulphonamide carboxylic acid])IRHLAEK(Dansyl)LAARGPVDC(N‑(5-fluoresceinyl)maleimide)AQLAEQLARRFEAFARAG (designed binder) [3-C15L8-B with dansyl and fluorescein (form for fluorescence titration)] registered a Kd of 29 nM.

Ac-NAADLEAK([Ahx-benzenesulphonamide carboxylic acid])IRHLAEK(X2)LAARGPVDAAQLAEQLARRFEAFARAG (designed binder) [3-C15L8-B]: the Kd in [5] was found to be 390 nM; in experiment [6], 60 nM; in experiment [7], 43 nM. As to Ac-NAADLEAAIRHLAERLAARGPVDAAQLAEQLAAK([Gly-Ahx-Pro-Arg-Pro-Gly])FEKFARAG (designed binder, also: reporter on Lys37, 'D' in the name not explained) [2D37L34_GPRP], the Kd in experiment [3] came out at 13600 nM.

In turn, Ac-NEADLEAAIRHLAERLEARGPADAAQLAEQLAAK([Gly-Ahx-Pro-Arg-Pro-Gly])FEKFARAG (designed binder, also: reporter on Lys37, 'D' in the name not explained) [1D37L34_GPRP] returned a Kd in experiment [3] of 5070 nM.

B2: 3D37L34_GPRP (designed binder)
chain: Ac-NAADLEAAIRHLAERLAARGPVDAAQLAEQLARK([Gly-Ahx-Pro-Arg-Pro-Gly])FEKFARAG
modifications: also: reporter on Lys37
notes: 'D' in the name not explained; a Cys in the loop region may be present
With B2, the Kd in experiment [3] worked out at 1150 nM; in [8], 15.4 nM. The term kon denotes a measure of how fast the partners come together. Consider Ac-NAADLEARIRHLRERLAARGPRDAAQLAEQLARK([Ahx-benzenesulphonamide carboxylic acid])FEK(X2)FARAG (designed binder, not fully specified (C-terminus)) [4-C37L34-B], for which the “factor of discrimination between HCAI and HCAII” value in [9] was roughly 30 fold. Moreover, the kon in [10] came to 4400 M⁻¹ s⁻¹. Further, the Kd in [5] worked out at 470 nM; in [6], 17 nM; in experiment [7], 15 nM.

B3: 2D15L8_GPRP (designed binder)
chain: Ac-NEADLEAK([Gly-Ahx-Pro-Arg-Pro-Gly])IRHLAEKLAARGPVDAAQLAEQLARAFEAFARAG
modifications: also: reporter on Lys15
notes: 'D' in place of 'C' in the name is not explained; tied to 2-C15L8 by the rest of the name
B3: the Kd in [3] was 10400 nM. In turn, Ac-NEADLEAAIRHLAEALAARGPK([Gly-Ahx-Pro-Arg-Pro-Gly])DAKQLAEQLARAFEAFARAG (designed binder, also: reporter on Lys25, 'D' in the name not explained) [2D25L22_GPRP] showed a Kd in experiment [3] of 16100 nM. Against the preceding molecule, the Kd is about 1.5-fold higher.

For the origin of these results see patent US20130261013A1 (MODPRO, published 2013).
